In PMC10994853:

Molecular target: SkpA (Fjoh_1689) (Flavobacterium johnsoniae (endogenous))
Assay: cryo-EM structure; Extended Translocon, peak I of Twin-strep–SprA complexes from a ΔgldL background (also seen at 4.3 Å from ΔgldM peak I); assembled in vivo, in LMNG

SkpA (Fjoh_1689) (natural protein)
stoichiometry N: 3
